Experimental data as given in patent publication US20190359693A1 (Janssen / Centocor, published 2019).

Tests used:
[1] = target: HA of H3N2 A/Victoria/210/09 (influenza A virus); experiment: cell-based or functional assay
[2] = target: HA of H8N4 A/Eurasian Wigeon/MPH571/08 (influenza A virus); experiment: cell-based or functional assay
[3] = target: HA of H4N6 A/Great Cormorant/MPB1683/06 (influenza A virus); experiment: cell-based or functional assay
[4] = target: HA of H6N1 A/Taiwan/2/2013 (influenza A virus); experiment: cell-based or functional assay
[5] = target: HA of H7N9 A/Shanghai/1/13 (influenza A virus); experiment: cell-based or functional assay
[6] = target: HA of H7N9 A/Anhui/1/13 (influenza A virus); experiment: cell-based or functional assay
[7] = target: HA of H6N8 A/Eurasian Wigeon/MPD411/07 (influenza A virus); experiment: cell-based or functional assay
[8] = target: HA of H5N2 A/Eurasian Wigeon/MPF461/07 (influenza A virus); experiment: cell-based or functional assay
[9] = target: HA of H3N2 A/Aichi/2/68 (influenza A virus, UniProt P03437 17-566); experiment: cell-based or functional assay
[10] = target: HA of H9N2 A/HK/466419/09 (influenza A virus); experiment: cell-based or functional assay
[11] = target: HA of H8N2 A/Env/MPJ1258/09 (influenza A virus); experiment: cell-based or functional assay
[12] = target: HA of H9N2 A/Great Cormorant/MP2934/04 (influenza A virus); experiment: cell-based or functional assay
[13] = target: HA of H5N2 A/Eurasian Wigeon/HK/MPF333/07 (influenza A virus); experiment: cell-based or functional assay
[14] = target: HA of H9N2 A/Ck/HK/SSP176/09 (influenza A virus); experiment: cell-based or functional assay
[15] = target: HA of H1N1 A/WSN/33 (influenza A virus, UniProt P03454 18-565); experiment: cell-based or functional assay
[16] = target: HA of H1N1 A/Mississippi/03/01 274H (influenza A virus); experiment: cell-based or functional assay
[17] = target: HA of H1N2 A/Env/HK/MPU3156/05 (influenza A virus); experiment: cell-based or functional assay
[18] = target: HA of H7N9 A/Shanghai/2/13 (influenza A virus); experiment: cell-based or functional assay
[19] = target: HA of H10N9 A/Northern Shoveler/MPE2531/08 (influenza A virus); experiment: cell-based or functional assay
[20] = target: T1, HA of H3N2 A/HK/1/68 (influenza A virus, UniProt Q91MA7 17-530); experiment: cell-based or functional assay
[21] = target: HA of H4N1 A/Northern Pintail/MPB1368/06 (influenza A virus); experiment: cell-based or functional assay
[22] = target: HA of H14N5 A/Mallard/Astrakhan/263/1982 (influenza A virus); experiment: cell-based or functional assay
[23] = target: T2, HA of H7N7 A/Netherlands/219/2003 (influenza A virus, UniProt P36346 19-563); experiment: cell-based or functional assay
[24] = target: HA of H3N2 A/Johannesburg/33/94 (influenza A virus); experiment: cell-based or functional assay
[25] = target: HA of H6N1 A/Eurasian Wigeon/MPG1884/09 (influenza A virus); experiment: cell-based or functional assay
[26] = target: HA of H2N2 A/Env/HK/MPU3156/05 (influenza A virus); experiment: cell-based or functional assay
[27] = target: HA of H2N2 A/Guiyang/1/57 (influenza A virus); experiment: cell-based or functional assay
[28] = target: HA of H11N9 A/Northern Pintail/MPC2085/07 (influenza A virus); experiment: cell-based or functional assay
[29] = target: HA of H1N1 A/Solomon Islands/3/2006 (IVR 145) (influenza A virus); experiment: cell-based or functional assay
[30] = target: HA of H2N2 A/WF/HK/MPU3156/05 (influenza A virus); experiment: cell-based or functional assay
[31] = target: HA of H4 A/WF/HK/MPA892/06 (influenza A virus); experiment: cell-based or functional assay
[32] = target: HA of H2N2 A/AnnArbor/23/57 (influenza A virus); experiment: cell-based or functional assay
[33] = target: HA of B/Florida/04/2006 (Yamagata) (influenza B virus); experiment: cell-based or functional assay
[34] = target: HA of H3N2 A/Perth/16/09 (influenza A virus); experiment: cell-based or functional assay
[35] = target: HA of H10N7 A/Chick/Germany/N/49 (influenza A virus); experiment: cell-based or functional assay
[36] = target: HA of H7N7 A/Common Teal/MPF139/07 (influenza A virus); experiment: cell-based or functional assay
[37] = target: HA of H5N1 A/Indonesia/5/05 (influenza A virus); experiment: cell-based or functional assay
[38] = target: HA of H7N7 A/PR8 H7N7-NY (influenza A virus); experiment: cell-based or functional assay
[39] = target: HA of H3N2 A/Fukui/45/04 (influenza A virus); experiment: cell-based or functional assay
[40] = target: HA of H7N7 A/Northern Shoveler/MPF518/08 (influenza A virus); experiment: cell-based or functional assay
[41] = target: HA of H10N8 A/Jiangxi/346/2013 (influenza A virus); experiment: cell-based or functional assay
[42] = target: HA of H10N3 A/Common Teal/MPH11/08 (influenza A virus); experiment: cell-based or functional assay
[43] = target: HA of H12N5 A/Env/MPK659/09 (influenza A virus); experiment: cell-based or functional assay
[44] = target: HA of H1N1 A/HK/54/98 (influenza A virus); experiment: cell-based or functional assay
[45] = target: HA of H1N1 A/Christchurch/16/10 (influenza A virus); experiment: cell-based or functional assay
[46] = target: T1, HA of H3N2 A/HK/1/68; experiment: BLI steady state
[47] = target: T2, HA of H7N7 A/Netherlands/219/2003; experiment: AlphaLISA competition vs CR9114
[48] = target: HA of H5N1 A/Vietnam/1194/04 (influenza A virus); experiment: cell-based or functional assay
[49] = target: HA of B/Harbin/7/94 (Yamagata) (influenza B virus); experiment: cell-based or functional assay
[50] = target: HA of B/Harbin/7/94 (Yamagata) (influenza B virus); experiment: cell-based or functional assay; remark: listed apart in the source
[51] = target: HA of B/Malaysia/2506/04 (Victoria) (influenza B virus); experiment: cell-based or functional assay
[52] = target: HA of B/Lee/40 (influenza B virus, UniProt P03460 16-552); experiment: cell-based or functional assay
[53] = target: HA of B/Massachusetts/02/12 (Yamagata) (influenza B virus); experiment: cell-based or functional assay

B1: SD1038 (VHH)
VHH: EVQLVESGGGLVQPGGSLRLSCAVSISIFDIYAMDWYRQAPGKQRDLVATSFRDGSTNYADSVKGRFTISRDNAKNTLYLQMNSLKPEDTAVYLCHVSLYRDPLGVAGGMGVYWGKGALVTVSS
notes: llama sdAb
Q: B1 was tested. Which VNA titer [1] did it give?
A: The VNA titer was 253 nM.

Q: What about the VNA titer [2] of the same binder?
A: Its VNA titer is 53.4 nM.

Q: What about the VNA titer [3] of the same binder?
A: The VNA titer was 275 nM.

Q: And the VNA titer [4]?
A: The VNA titer was 15.3 nM.

Q: What about the VNA titer [5] of the same binder?
A: Its VNA titer is 503 nM.

Q: What about the VNA titer [6] of the same binder?
A: Its VNA titer is 253 nM.

Q: What about the VNA titer [7] of the same binder?
A: Its VNA titer is 13.2 nM.

Q: What about the VNA titer [8] of the same binder?
A: The VNA titer was 18.8 nM.

Q: And the VNA titer [9]?
A: The VNA titer was 127 nM.

Q: And the VNA titer [10]?
A: Its VNA titer is 700 nM.

Q: What about the VNA titer [11] of the same binder?
A: Its VNA titer is 58.7 nM.

Q: What about the VNA titer [12] of the same binder?
A: Its VNA titer is 105 nM.

Q: What about the VNA titer [13] of the same binder?
A: Its VNA titer is 11 nM.

Q: What about the VNA titer [14] of the same binder?
A: Its VNA titer is 90.8 nM.

Q: And the VNA titer [15]?
A: Its VNA titer is 5 nM.

Q: What about the VNA titer [16] of the same binder?
A: Its VNA titer is 4.7 nM.

Q: What about the VNA titer [17] of the same binder?
A: Its VNA titer is 40.5 nM.

Q: What about the VNA titer [18] of the same binder?
A: The VNA titer was 239 nM.

Q: What about the VNA titer [19] of the same binder?
A: Its VNA titer is 327 nM.

Q: What about the VNA titer [20] of the same binder?
A: The VNA titer was 40.2 nM.

Q: What about the VNA titer [21] of the same binder?
A: The VNA titer was 485 nM.

Q: And the VNA titer [22]?
A: Its VNA titer is 253 nM.

Q: And the VNA titer [23]?
A: The VNA titer was 181 nM.

Q: And the VNA titer [24]?
A: The VNA titer was 443 nM.

Q: And the VNA titer [25]?
A: The VNA titer was 16.2 nM.

Q: What about the VNA titer [26] of the same binder?
A: The VNA titer was 23.2 nM.

Q: And the VNA titer [27]?
A: Its VNA titer is 102 nM.

Q: And the VNA titer [28]?
A: Its VNA titer is 160 nM.

Q: What about the VNA titer [29] of the same binder?
A: The VNA titer was 4.1 nM.

Q: And the VNA titer [30]?
A: Its VNA titer is 31.4 nM.

Q: And the VNA titer [31]?
A: The VNA titer was > 1000 nM.

Q: And the VNA titer [32]?
A: Its VNA titer is 33 nM.

Q: And the VNA titer [33]?
A: Its VNA titer is > 1000 nM.

Q: And the VNA titer [34]?
A: Its VNA titer is 253 nM.

Q: What about the VNA titer [35] of the same binder?
A: Its VNA titer is 469 nM.

Q: What about the VNA titer [36] of the same binder?
A: Its VNA titer is 359 nM.

Q: And the VNA titer [37]?
A: Its VNA titer is 32.8 nM.

Q: What about the VNA titer [38] of the same binder?
A: The VNA titer was 80.6 nM.

Q: What about the VNA titer [39] of the same binder?
A: The VNA titer was 632 nM.

Q: And the VNA titer [40]?
A: The VNA titer was 441 nM.

Q: And the VNA titer [41]?
A: The VNA titer was 239 nM.

Q: And the VNA titer [42]?
A: Its VNA titer is 301 nM.

Q: What about the VNA titer [43] of the same binder?
A: Its VNA titer is > 1000 nM.

Q: And the VNA titer [44]?
A: Its VNA titer is 16.5 nM.

Q: What about the VNA titer [45] of the same binder?
A: Its VNA titer is 2.6 nM.

Q: What about the Kd [46] of the same binder?
A: The Kd was 44 nM.

Q: And the pIC50 [47]?
A: The pIC50 was 7.5.

B2: SD1084 (VHH)
VHH: EVQLVESGGGLVQPGGSLKLSCAASGFTFSTSWMYWLRQAPGKGLEWVSVINTDGGTYYADSVKDRFTISRDNAKDTLYLQMSSLKSEDTAVYYCAKDWGGPEPTRGQGTQVTVSS
Q: How did the hemagglutination inhibition titer [48] turn out when B2 was run?
A: Its hemagglutination inhibition titer is > 50 µg/mL.

Q: What about the hemagglutination inhibition titer [49] of the same binder?
A: Its hemagglutination inhibition titer is 1.1 µg/mL.

Q: And the VNA titer [50]?
A: Its VNA titer is 240 nM.

Q: What about the VNA titer [51] of the same binder?
A: Its VNA titer is 34.9 nM.

Q: What about the VNA titer [52] of the same binder?
A: Its VNA titer is > 1000 nM.

Q: What about the VNA titer [53] of the same binder?
A: The VNA titer was 40 nM.
